From article PMC11098746 (2024) come the findings set out here.

B1: ADP355 (protein)
chain: MALLLLHPAFQSCLLLTLLGLWRTTPEAHASSLGAPAISAASFLQDLIHRYGEGDSLTLQQLKALLNHLDVGVGRGNVTQHVQGHRNLSTCFSSGDLFTAHNFSEQSRIGSSELQEFCPTILQQLDSRACTSENQENEENEQTEEGRPSAVEVWGYG
modifications: bait human Fc-tagged dimer
B2: ADP278 (protein)
chain: IQAKLIFLNFVRVPYFIDLKKPQDQGLNHTCNYYLQPEEDVTIGVWHTVPAVWWKNAQGKDQMWYEDALASSHPIILYLHGNAGTRGGDHRVELYKVLSSLGYHVVTFDYRGWGDSVGTPSERGMTYDALHVFDWIKARSGDNPVYIWGHSLGTGVATNLVRRLCERETPPDALILESPFTNIREEAKSHPFSVIYRYFPGFDWFFLDPITSSGIKFANDENVKHISCPLLILHAEDDPVVPFQLGRKLYSIAAPARSFRDFKVQFVPFHSDLGYRHKYIYKSPELPRILREFLGKSEPEHQH
modifications: bait human Fc-tagged dimer
B3: ADP357 (protein)
chain: MGPPSAPPCRLHVPWKEVLLTASLLTFWNPPTTAKLTIESTPFNVAEGKEVLLLAHNLPQNRIGYSWYKGERVDGNSLIVGYVIGTQQATPGPAYSGRETIYPNASLLIQNVTQNDTGFYTLQVIKSDLVNEEATGQFHVYPELPKPSISSNNSNPVEDKDAVAFTCEPEVQNTTYLWWVNGQSLPVSPRLQLSNGNMTLTLLSVKRNDAGSYECEIQNPASANRSDPVTLNVLYGPDGPTISPSKANYRPGENLNLSCHAASNPPAQYSWFINGTFQQSTQELFIPNITVNNSGSYMCQAHNSATGLNRTTVTMITVSGSAP
modifications: bait human Fc-tagged dimer
B4: ADP129 (protein)
chain: MFPFYSCWRTGLLLLLLAVAVRESWQTEEKTCDLVGEKGKESEKELALVKRLKPLFNKSFESTVGQGSDTYIYIFRVCREAGNHTSGAGLVQINKSNGKETVVGRLNETHIFNGSNWIMLIYKGGDEYDNHCGKEQRRAVVMISCNRHTLADNFNPVSEERGKVQDCFYLFEMDSSLACSPEISHLS
modifications: bait human Fc-tagged dimer
B5: ADP356 (protein)
chain: MAPLPGALGVAAAAALWLLLLLLPRTRADEHEHTYQDKEEVVLWMNTVGPYHNRQETYKYFSLPFCVGSKKSISHYHETLGEALQGVELEFSGLDIKFKDDVMPATYCEIDLDKEKRDAFVYAIKNHYWYQMYIDDLPIWGIVGEADENGEDYYLWTYKKLEIGFNGNRIVDVNLTSEGKVKLVPNTKIQMSYSVKWKKSDVKFEDRFDKYLDPS
modifications: bait human Fc-tagged dimer
B6: ADP349 (protein)
chain: MAAAGPRRSVRGAVCLHLLLTLVIFSRAGEACKKVILNVPSKLEADKIIGRVNLEECFRSADLIRSSDPDFRVLNDGSVYTARAVALSDKKRSFTIWLSDKRKQTQKEVTVLLEHQKKVSKTRHTRETVLRRAKRRWAPIPCSMQENSLGPFPLFLQQVESDAAQNYTVFYSISGRGVDKEPLNLFYIERDTGNLFCTRPVDREEYDVFDLIAYASTADGYSADLPLPLPIRVEDENDNHPVFTEAIYNFEVLESSRPGTTVGVVCATDRDEPDTMHTRLKYSILQQTPRSPGLFSVHPSTGVITTVSHYLDREVVDKYSLIMKVQDMDGQFFGLIGTSTCIITVTDSNDNAPTFRQNAYEAFVEENAFNVEILRIPIEDKDLINTANWRVNFTILKGNENGHFKISTDKETNEGVLSVVKPLNYEENRQVNLEIGVNNEAPFARDIPRVTALNRALVTVHVRDLDEGPECTPAAQYVRIKENLAVGSKINGYKAYDPENRNGNGLRYKKLHDPKGWITIDEISGSIITSKILDREVETPKNELYNITVLAIDKDDRSCTGTLAVNIEDVNDNPPEILQEYVVICKPKMGYTDILAVDPDEPVHGAPFYFSLPNTSPEISRLWSLTKVNDTAARLSYQKNAGFQEYTIPITVKDRAGQAATKLLRVNLCECTHPTQCRATSRSTGVILG
modifications: bait human Fc-tagged dimer
B7: ADP371 (protein)
chain: MRRAWILLTLGLVACVSAESRAELTSDKDMYLDNSSIEEASGVYPIDDDDYASASGSGADEDVESPELTTSRPLPKILLTSAAPKVETTTLNIQNKIPAQTKSPEETDKEKVHLSDSERKMDPAEEDTNVYTEKHSDSLFKRTE
modifications: bait human Fc-tagged dimer
B8: ADP360 (protein)
chain: MGAARGSPARPRRLPLLSVLLLPLLGGTQTAIVFIKQPSSQDALQGRRALLRCEVEAPGPVHVYWLLDGAPVQDTERRFAQGSSLSFAAVDRLQDSGTFQCVARDDVTGEEARSANASFNIKWIEAGPVVLKHPASEAEIQPQTQVTLRCHIDGHPRPTYQWFRDGTPLSDGQSNHTVSSKERNLTLRPAGPEHSGLYSCCAHSAFGQACSSQNFTLSIADESFARVVLAPQDVVVARYEEAMFHCQFSAQPPPSLQWLFEDETPITNRSRPPHLRRATVFANGSLLLTQVRPRNAGIYRCIGQGQRGPPIILEATLHLAEIEDMPLFEPRVFTAGSEERVTCLPPKGLPEPSVWWEHAGVRLPTHGRVYQKGHELVLANIAESDAGVYTCHAANLAGQRRQDVNITVATVPSWLKKPQDSQLEEGKPGYLDCLTQATPKPTVVWYRNQMLISEDSRFEVFKNGTLRINSVEVYDGTWYRCMSSTPAGSIEAQARVQVLEKLKFTPPPQPQQCMEFDKEATVPCSATGREKPTIKWERADGSSLPEWVTDNAGTLHFARVTRDDAGNYTCIASNGPQGQIRAHVQLTVAVFITFKVEPERTTVYQGHTALLQCEAQGDPKPLIQWKGKDRILDPTKLGPRMHIFQNGSLVIHDVAPEDSGRYTCIAGNSCNIKHTEAPLYVVDKPVPEESEGPGSPPP
modifications: bait human Fc-tagged dimer
B9: ADP119 (protein)
chain: MDVCVRLALWLLWGLLLHQGQSLSHSHSEKATGTSSGANSEESTAAEFCRIDKPLCHSEDEKLSFEAVRNIHKLMDDDANGDVDVEESDEFLREDLNYHDPTVKHSTFHGEDKLISVEDLWKAWKSSEVYNWTVDEVVQWLITYVELPQYEETFRKLQLSGHAMPRLAVTNTTMTGTVLKMTDRSHRQKLQLKALDTVLFGPPLLTRHNHLKD
modifications: bait human Fc-tagged dimer
B10: ADP350 (protein)
chain: MAAAGRLPSSWALFSPLLAGLALLGVGPVPARALHNVTAELFGAEAWGTLAAFGDLNSDKQTDLFVLRERNDLIVFLADQNAPYFKPKVKVSFKNHSALITSVVPGDYDGDSQMDVLLTYLPKNYAKSELGAVIFWGQNQTLDPNNMTILNRTFQDEPLIMDFNGDLIPDIFGITNESNQPQILLGGNLSWHPALTTTSKMRIPHSHAFIDLTEDFTADLFLTTLNATTSTFQFEIWENLDGNFSVSTILEKPQNMMVVGQSAFADFDGDGHMDHLLPGCEDKNCQKSTIYLVRSGMKQWVPVLQDFSNKGTLWGFVPFVDEQQPTEIPIPITLHIGDYNMDGYPDALVILKNTSGSNQQAFLLENVPCNNASCEEARRMFKVYWELTDLNQIKDAMVATFFDIYEDGILDIVVLSKGYTKNDFAIHTLKNNFEADAYFVKVIVLSGLCSNDCPRKITPFGVNQPGPYIMYTTVDANGYLKNGSAGQLSQSAHLALQLPYNVLGLGRSANFLDHLYVGIPRPSGEKSIRKQEWTAIIPNSQLIVIPYPHNVPRSWSAKLYLTPS
modifications: bait human Fc-tagged dimer
B11: ADP381 (protein)
chain: SQEKNKNANSSPVASTTPSASATTNPASATTLDQSKAWNRYRLPNTLKPDSYRVTLRPYLTPNDRGLYVFKGSSTVRFTCKEATDVIIIHSKKLNYTLSQGHRVVLRGVGGSQPPDIDKTELVEPTEYLVVHLKGSLVKDSQYEMDSEFEGELADDLAGFYRSEYMEGNVRKVVATTQMQAADARKSFPCFDEPAMKAEFNITLIHPKDLTALSNMLPKGPSTPLPEDPNWNVTEFHTTPKMSTYLLAFIVSEFDYVEKQASNGVLIRIWARPSAIAAGHGDYALNVTGPILNFFAGHYDTPYPLPKSDQIGLPDFNAGAMENWGLVTYRENSLLFDPLSSSSSNKERVVTVIAHELAHQWFGNLVTIEWWNDLWLNEGFASYVEYLGADYAEPTWNLKDLMVLNDVYRVMAVDALASSHPLSTPASEINTPAQISELFDAISYSKGASVLRMLSSFLSEDVFKQGLASYLHTFAYQNTIYLNLWDHLQEAVNNRSIQLPTTVRDIMNRWTLQMGFPVITVDTSTGTLSQEHFLLDPDSNVTRPSEFNYVWIVPITSIRDGRQQQDYWLIDVRAQNDLFSTSGNEWVLLNLNVTGYYRVNYDEENWRKIQTQLQRDHSAIPVINRAQIINDAFNLASAHKVPVTLALNNTLFLIEERQYMPWEAALSSLSYFKLMFDRSEVYGPMKNYLKKQVTPLFIHFRNNTNNWREIPENLMDQYSEVNAISTACSNGVPECEEMVSGLFKQWMENPNNNPIHPNLRSTVYCNAIAQGGEEEWDFAWEQFRNATLVNEADKLRAALACSKELWILNRYLSYTLNPDLIRKQDATSTIISITNNVIGQGLVWDFVQSNWKKLFNDYGGGSFSFSNLIQAVTRRFSTEYELQQLEQFKKDNEETGFGSGTRALEQALEKTKANIKWVKENKEVVLQWFTENSK
modifications: bait human Fc-tagged dimer
B12: ADP140 (protein)
chain: MELRVLLCWASLAAALEETLLNTKLETADLKWVTFPQVDGQWEELSGLDEEQHSVRTYEVCDVQRAPGQAHWLRTGWVPRRGAVHVYATLRFTMLECLSLPRAGRSCKETFTVFYYESDADTATALTPAWMENPYIKVDTVAAEHLTRKRPGAEATGKVNVKTLRLGPLSKAGFYLAFQDQGACMALLSLHLFYKKCAQLTVNLTRFPETVPRELVVPVAGSCVVDAVPAPGPSPSLYCREDGQWAEQPVTGCSCAPGFEAAEGNTKCRACAQGTFKPLSGEGSCQPCPANSHSNTIGSAVCQCRVGYFRARTDPRGAPCTTPPSAPRSVVSRLNGSSLHLEWSAPLESGGREDLTYALRCRECRPGGSCAPCGGDLTFDPGPRDLVEPWVVVRGLRPDFTYTFEVTALNGVSSLATGPVPFEPVNVTTDREVPPAVSDIRVTRSSPSSLSLAWAVPRAPSGAVLDYEVKYHEKGAEGPSSVRFLKTSENRAELRGLKRGASYLVQVRARSEAGYGPFGQEHHSQTQLDESEGWREQLAL
modifications: bait human Fc-tagged dimer
B13: ADP266 (protein)
chain: EEFRPEMLQGKKVIVTGASKGIGREMAYHLAKMGAHVVVTARSKETLQKVVSHCLELGAASAHYIAGTMEDMTFAEQFVAQAGKLMGGLDMLILNHITNTSLNLFHDDIHHVRKSMEVNFLSYVVLTVAALPMLKQSNGSIVVVSSLAGKVAYPMVAAYSASKFALDGFFSSIRKEYSVSRVNVSITLCVLGLIDTETAMKAVSGIVHMQAAPKEECALEIIKGGALRQEEVYYDSSLWTTLLIRNPCRKILEFLYSTSYNMDRFINK
modifications: bait human Fc-tagged dimer

The target in this experiment is Circumsporozoite protein (CSP) (Plasmodium falciparum (isolate 3D7), UniProt Q7K740). The experiment is described as follows: AVEXIS screen signal:noise (double-corrected).
Chain of Circumsporozoite protein (CSP) (Q7K740 19-374): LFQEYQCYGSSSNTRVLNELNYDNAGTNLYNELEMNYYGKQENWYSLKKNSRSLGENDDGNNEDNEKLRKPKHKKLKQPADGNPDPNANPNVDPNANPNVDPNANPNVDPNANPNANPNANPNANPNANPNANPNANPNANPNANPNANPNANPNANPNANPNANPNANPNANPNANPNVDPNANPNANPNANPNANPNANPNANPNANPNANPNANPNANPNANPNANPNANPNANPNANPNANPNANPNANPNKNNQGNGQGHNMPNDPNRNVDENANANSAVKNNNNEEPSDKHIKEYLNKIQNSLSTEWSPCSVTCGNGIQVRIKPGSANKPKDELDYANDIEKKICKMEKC
In turn, B1 showed a binding score of 0.935.

Consider B2, for which the binding score stood at 0.76.

The molecule B3 registered a binding score of 0.755.

Turning to B4, the binding score worked out at 1.25.

Turning to B5, the binding score is 1.

Regarding B6, the binding score is 0.666.

B7 showed a binding score of 1.57.

Molecule B8 displayed a binding score of 0.739.

B9 showed a binding score of 1.89.

As to B10, the binding score was 0.985.

Molecule B11 came in with a binding score of 0.803.

B12 displayed a binding score of 1.91.

For the molecule B13, the binding score is 0.642.
